In patent US20160168251A1 (MorphoSys, published 2016):
Changes are numbered by the printed parent chain.

How the values were obtained:
[1] = molecular target: T1, human NPRA on HEK293 cells bound to ANP (human, UniProt P01160 124-151); assay: cell-based or functional assay
T1 sequence: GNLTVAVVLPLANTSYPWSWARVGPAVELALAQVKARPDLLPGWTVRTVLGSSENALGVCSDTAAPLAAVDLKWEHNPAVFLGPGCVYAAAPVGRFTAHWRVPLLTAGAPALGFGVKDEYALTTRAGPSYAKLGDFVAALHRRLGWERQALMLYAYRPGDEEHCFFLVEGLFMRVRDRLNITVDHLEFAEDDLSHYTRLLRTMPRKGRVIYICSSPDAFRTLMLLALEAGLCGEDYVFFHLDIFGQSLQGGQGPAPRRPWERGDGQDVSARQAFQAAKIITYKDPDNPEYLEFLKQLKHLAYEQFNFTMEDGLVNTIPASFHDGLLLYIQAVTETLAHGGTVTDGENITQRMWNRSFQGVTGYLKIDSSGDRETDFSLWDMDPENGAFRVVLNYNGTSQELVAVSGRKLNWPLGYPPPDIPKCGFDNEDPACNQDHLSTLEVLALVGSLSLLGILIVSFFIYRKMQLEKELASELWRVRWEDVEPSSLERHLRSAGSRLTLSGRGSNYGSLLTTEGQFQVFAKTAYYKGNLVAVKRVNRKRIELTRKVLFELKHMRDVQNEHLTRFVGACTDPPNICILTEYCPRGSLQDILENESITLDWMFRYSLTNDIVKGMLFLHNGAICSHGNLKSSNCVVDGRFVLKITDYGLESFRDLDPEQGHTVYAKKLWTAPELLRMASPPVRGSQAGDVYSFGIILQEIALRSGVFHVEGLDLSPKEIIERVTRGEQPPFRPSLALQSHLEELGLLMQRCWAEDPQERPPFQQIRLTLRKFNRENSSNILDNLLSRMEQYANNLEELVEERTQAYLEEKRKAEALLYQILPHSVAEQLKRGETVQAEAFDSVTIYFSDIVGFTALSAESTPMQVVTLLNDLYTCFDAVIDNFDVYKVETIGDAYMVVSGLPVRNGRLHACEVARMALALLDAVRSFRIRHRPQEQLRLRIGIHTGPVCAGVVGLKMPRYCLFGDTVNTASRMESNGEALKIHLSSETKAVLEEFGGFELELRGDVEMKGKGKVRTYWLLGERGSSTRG
T1 sequence (peptide): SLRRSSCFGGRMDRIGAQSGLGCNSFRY

[2] = molecular target: T2, human NPRB on HEK293 cells, without added ligand (human, UniProt P20594 23-1047); assay: FACS, HEK NPRB cells without ligand
T2 construct: whole, on cells; also called HEK NPRB cells; natriuretic peptide receptor B
T2 sequence (looked up): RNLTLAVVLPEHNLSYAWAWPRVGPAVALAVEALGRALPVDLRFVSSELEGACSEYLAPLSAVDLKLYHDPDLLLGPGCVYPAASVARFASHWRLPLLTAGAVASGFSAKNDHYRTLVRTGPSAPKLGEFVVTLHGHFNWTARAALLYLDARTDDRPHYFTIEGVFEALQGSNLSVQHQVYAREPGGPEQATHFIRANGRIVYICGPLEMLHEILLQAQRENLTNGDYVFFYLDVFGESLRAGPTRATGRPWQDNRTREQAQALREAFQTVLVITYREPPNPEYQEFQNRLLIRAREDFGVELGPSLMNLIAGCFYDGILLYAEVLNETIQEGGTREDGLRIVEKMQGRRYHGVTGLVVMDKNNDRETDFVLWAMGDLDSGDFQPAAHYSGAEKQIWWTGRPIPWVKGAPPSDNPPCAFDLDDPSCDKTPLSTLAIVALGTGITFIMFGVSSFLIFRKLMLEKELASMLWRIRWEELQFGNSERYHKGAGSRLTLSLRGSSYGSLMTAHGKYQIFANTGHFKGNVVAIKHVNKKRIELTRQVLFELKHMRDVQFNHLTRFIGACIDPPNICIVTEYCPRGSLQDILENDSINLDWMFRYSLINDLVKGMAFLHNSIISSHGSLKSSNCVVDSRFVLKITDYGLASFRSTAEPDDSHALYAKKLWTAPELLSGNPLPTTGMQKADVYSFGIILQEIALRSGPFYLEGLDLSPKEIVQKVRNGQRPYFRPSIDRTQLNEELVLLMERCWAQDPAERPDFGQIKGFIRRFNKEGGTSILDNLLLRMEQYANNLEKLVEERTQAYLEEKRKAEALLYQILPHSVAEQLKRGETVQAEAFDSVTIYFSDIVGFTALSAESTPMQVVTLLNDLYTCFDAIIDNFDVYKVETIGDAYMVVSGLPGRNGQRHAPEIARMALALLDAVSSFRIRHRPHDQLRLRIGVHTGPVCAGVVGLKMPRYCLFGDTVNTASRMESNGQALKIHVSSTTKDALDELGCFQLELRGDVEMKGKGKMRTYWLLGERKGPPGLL
Method: (§1) HEK NPRA cells are detached with Accutase (PAA Laboratories GmbH, Cat. No. L11-007, Austria), harvested by centrifugation (900 rpm, 4 minutes) and resuspended in FACS buffer (PBS/3% FCS/0.02% NaN3) to a final concentration of 10⁶ cells/ml. 100 μl of the cell suspension is transferred to each well of a 96 round bottom plate (TC Microwell 96U, Nunc). […] Cells are washed in 150 μl of FACS buffer, pelleted and resuspended in 50 μl of the solution containing the primary antibody comprising a BEL extract of Fabs, a diluted BEL extract or purified antibody diluted in FACS buffer and incubated on ice for 30 min. Cells are washed again in FACS buffer and resuspended in 50 μl of FACS buffer containing the secondary antibody (R-Phycoerythrin-conjugated Affipure F(ab′)₂ Fragment Goat Anti-Human IgG, Dianova) and incubated on ice for 45 min. Cells are washed twice with FACS buffer and resuspended in 200 μl of FACS buffer for analysis in the FACS Array (BD Biosciences).

[3] = molecular target: T3, human NPRA on HEK293 cells, without added ligand (human, UniProt P16066 33-1061); assay: FACS, HEK NPRA cells without ligand
T3 construct: a signal peptide is not delimited; also called HEK NPRA cells; HEK hNPRA cells
T3 sequence: T1 sequence

[4] = molecular target: T4, human NPRC on HEK293 cells in the presence of ANP (human, UniProt P17342 27-541; P01160 124-151); assay: FACS, HEK NPRC cells with 100 nM ANP
T4 construct: whole, on cells;mature; also called HEK NPRC cells + 100 nM ANP
T4 sequence (looked up): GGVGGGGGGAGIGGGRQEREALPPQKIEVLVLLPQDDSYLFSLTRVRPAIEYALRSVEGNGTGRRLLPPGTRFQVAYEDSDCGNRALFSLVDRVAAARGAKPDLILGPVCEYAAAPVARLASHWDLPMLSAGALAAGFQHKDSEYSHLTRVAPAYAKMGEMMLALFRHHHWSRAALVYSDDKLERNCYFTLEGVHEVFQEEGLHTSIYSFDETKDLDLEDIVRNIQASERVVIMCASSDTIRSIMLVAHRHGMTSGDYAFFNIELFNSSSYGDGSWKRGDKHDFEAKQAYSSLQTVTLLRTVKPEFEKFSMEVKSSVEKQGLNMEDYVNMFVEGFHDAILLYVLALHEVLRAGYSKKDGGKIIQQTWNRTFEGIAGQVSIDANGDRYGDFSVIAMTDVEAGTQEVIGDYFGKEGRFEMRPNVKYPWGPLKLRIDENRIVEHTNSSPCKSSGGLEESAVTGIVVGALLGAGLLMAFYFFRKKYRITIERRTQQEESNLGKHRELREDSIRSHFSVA
T4 sequence (peptide, looked up): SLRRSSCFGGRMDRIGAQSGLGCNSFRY
Method: as §1

[5] = molecular target: T1, human NPRA on HEK293 cells bound to ANP; assay: cell-based or functional assay; remark: listed apart in the source
[6] = molecular target: T1, human NPRA on HEK293 cells bound to ANP; assay: FACS, IgG4_Pro on HEK NPRA cells in the presence of 100 nM ANP
Method: as §1

[7] = molecular target: T5, human NPRC on HEK293 cells, without added ligand (human, UniProt P17342 27-541); assay: FACS, HEK NPRC cells without ligand
T5 construct: whole, on cells; also called HEK NPRC cells; natriuretic peptide receptor C
T5 sequence (looked up): T4 sequence (looked up)
Method: as §1

[8] = molecular target: T1, human NPRA on HEK293 cells bound to ANP; assay: FACS, HEK NPRA cells with 100 nM ANP, IgG4_Pro format
[9] = molecular target: T6, human NPRB on HEK293 cells in the presence of CNP (human, UniProt P20594 23-1047; P23582 105-126); assay: FACS, HEK NPRB cells with 100 nM CNP
T6 construct: whole, on cells;mature; also called HEK NPRB cells + 100 nM CNP
T6 sequence (P23582 105-126 limits assumed, one chain of several): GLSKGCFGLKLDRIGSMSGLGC
Method: as §1

[10] = molecular target: T7, human NPRC on HEK293 cells in the presence of BNP (human, UniProt P17342 27-541; P16860 103-134); assay: FACS, HEK NPRC cells with 100 nM BNP
T7 construct: whole, on cells;mature; also called HEK NPRC cells + 100 nM BNP
T7 sequence (looked up): T4 sequence (looked up)
T7 sequence (peptide, looked up): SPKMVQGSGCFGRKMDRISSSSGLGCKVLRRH
Method: as §1

[11] = molecular target: T8, NPRA-Fc fusion protein bound to ANP (human, UniProt P01160 124-151); assay: SPR (Biacore 3000), NPRA-Fc amine-coupled on CM5, analyte with 100 nM human ANP
T8 construct: mature; Receptor-ligand complex; 'human ANP' is stated for Biacore, plain 'ANP' for ELISA and HXMS; also called NPRA-Fc+ANP

[12] = molecular target: T1, human NPRA on HEK293 cells bound to ANP; assay: FACS, HEK NPRA cells with ANP

B1: 5502 Fab (Fab, V domains shown)
VH: QVQLQQSGPGLVKPSQTLSLTCAISGDSVSSRSASWSWIRQSPGRGLEWLGRIYYRSKWYNDYAVSVKSRITINPDTSKNQFSLQLNSVTPEDTAVYYCARMDVPSFRYFDVWGQGTLVTVSS
VL: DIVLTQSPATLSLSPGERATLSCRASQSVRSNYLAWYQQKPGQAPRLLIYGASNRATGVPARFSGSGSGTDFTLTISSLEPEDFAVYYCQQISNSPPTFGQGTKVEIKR
EC50 of ANP, cGMP production in HEK NPRA cells, with 400 nM Fab [1]: 0.3 nM | factor by which the potency of ANP is enhanced (cGMP, 400 nM Fab) [1]: 10 fold

B2: 5504 Fab (Fab, V domains shown)
VH: B1 VH
VL: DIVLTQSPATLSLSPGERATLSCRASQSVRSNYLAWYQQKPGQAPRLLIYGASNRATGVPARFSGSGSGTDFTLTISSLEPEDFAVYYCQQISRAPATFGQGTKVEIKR
EC50 of ANP, cGMP production in HEK NPRA cells, with 400 nM Fab [1]: 0.3 nM | factor by which the potency of ANP is enhanced (cGMP, 400 nM Fab) [1]: 10 fold

B3: 5507 Fab (Fab, V domains shown)
VH: B1 VH
VL: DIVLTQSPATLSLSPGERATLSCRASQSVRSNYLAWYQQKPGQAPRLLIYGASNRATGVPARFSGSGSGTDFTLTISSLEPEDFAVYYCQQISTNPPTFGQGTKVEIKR
EC50 of ANP, cGMP production in HEK NPRA cells, with 400 nM Fab [1]: 0.5 to 0.6 nM

B4: 5513 Fab (Fab, V domains shown)
VH: B1 VH
VL: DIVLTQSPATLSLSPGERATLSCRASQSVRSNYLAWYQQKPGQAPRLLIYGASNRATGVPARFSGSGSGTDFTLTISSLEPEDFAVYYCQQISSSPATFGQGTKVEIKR
EC50 of ANP, cGMP production in HEK NPRA cells, with 400 nM Fab [1]: 0.5 to 0.6 nM

B5: 5514 Fab (Fab, V domains shown)
VH: B1 VH
VL: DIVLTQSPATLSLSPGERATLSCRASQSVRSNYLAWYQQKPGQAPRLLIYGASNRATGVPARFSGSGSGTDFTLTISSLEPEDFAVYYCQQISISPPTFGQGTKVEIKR
EC50 of ANP, cGMP production in HEK NPRA cells, with 400 nM Fab [1]: 0.5 to 0.6 nM

B6: 5504 IgG4_Pro (antibody, V domains shown)
VH: B1 VH
VL: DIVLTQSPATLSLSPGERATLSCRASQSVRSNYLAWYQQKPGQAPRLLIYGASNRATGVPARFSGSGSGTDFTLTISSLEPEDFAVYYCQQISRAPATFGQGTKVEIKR
notes: Human IgG4_Pro
binding result [2]: no binding (tested: 20 nM) | binding result [3]: no binding (tested: 20 nM) | binding result [4]: no binding (tested: 20 nM) | cGMP EC50 (nM), titration of the antibody on HEK NPRA cells with 200 pM ANP [5]: 1.2 nM | EC50 [6]: 0.56 nM | fold increase in the potency of ANP (cGMP, HEK NPRA cells, 200 nM IgG4_Pro) [1]: ≤ 10 fold | binding result [7]: no binding (tested: 20 nM) | EC50 (read off the curve) [8]: ~0.5 nM | binding result [9]: no binding (tested: 20 nM) | binding result [10]: no binding (tested: 20 nM)

B7: 5592 Fab (Fab, V domains shown)
VH: B1 VH with I53T, K58H, N61Y, D62E, V65Q
VL: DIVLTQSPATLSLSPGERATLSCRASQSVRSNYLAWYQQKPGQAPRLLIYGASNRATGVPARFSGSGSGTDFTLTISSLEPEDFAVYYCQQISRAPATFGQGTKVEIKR
Kd [11]: 0.426 nM | koff [11]: 0.000369 s⁻¹ | kon [11]: 868000 M⁻¹ s⁻¹

B8: 5064 IgG1 (antibody, V domains shown)
VH: B1 VH
VL: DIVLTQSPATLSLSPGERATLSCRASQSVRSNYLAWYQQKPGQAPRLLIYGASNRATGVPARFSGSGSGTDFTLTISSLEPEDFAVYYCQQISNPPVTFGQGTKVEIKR
notes: Human IgG1 format
EC50 (read off the curve) [12]: ~0.5 nM

B9: 5591 Fab (Fab, V domains shown)
VH: B1 VH with I53T, K58H, N61Y, D62E, V65Q
VL: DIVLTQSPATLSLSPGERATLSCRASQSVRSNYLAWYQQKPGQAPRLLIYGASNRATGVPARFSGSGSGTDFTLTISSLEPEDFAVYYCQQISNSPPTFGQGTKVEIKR
Kd [11]: 1.16 nM | koff [11]: 0.00103 s⁻¹ | kon [11]: 884000 M⁻¹ s⁻¹
